# T1: Full-length APLP1 (APP-like protein 1), P51693
# T1 chain: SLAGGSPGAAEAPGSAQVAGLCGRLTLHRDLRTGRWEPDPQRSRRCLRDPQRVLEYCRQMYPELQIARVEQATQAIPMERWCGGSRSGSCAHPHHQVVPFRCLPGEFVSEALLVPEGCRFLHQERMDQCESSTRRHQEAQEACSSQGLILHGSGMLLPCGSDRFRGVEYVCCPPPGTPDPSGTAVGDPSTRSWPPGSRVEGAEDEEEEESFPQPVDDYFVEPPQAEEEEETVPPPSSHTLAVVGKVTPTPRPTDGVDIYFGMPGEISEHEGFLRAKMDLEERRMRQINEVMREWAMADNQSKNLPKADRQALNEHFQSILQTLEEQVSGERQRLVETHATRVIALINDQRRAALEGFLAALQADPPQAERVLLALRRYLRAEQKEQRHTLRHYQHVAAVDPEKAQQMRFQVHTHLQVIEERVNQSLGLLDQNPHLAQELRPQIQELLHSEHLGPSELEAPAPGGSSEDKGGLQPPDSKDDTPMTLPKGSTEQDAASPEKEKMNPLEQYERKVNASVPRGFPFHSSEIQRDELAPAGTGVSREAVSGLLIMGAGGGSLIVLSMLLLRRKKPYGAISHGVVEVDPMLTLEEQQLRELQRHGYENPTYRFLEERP
# B1: Recombinant caspase-7 (protein)
# chain: AKPDRSSFVPSLFSKKKKNVTMRSIKTTRDRVPTYQYNMNFEKLGKCIIINNKNFDKVTGMGVRNGTDKDAEALFKCFRSLGFDVIVYNDCSCAKMQDLLKKASEEDHTNAACFACILLSHGEENVIYGKDGVTPIKDLTAHFRGDRCKTLLEKPKLFFIQACRGTELDDGIQADSGPINDTDANPRYKIPVEADFLFAYSTVPGYYSWRSPGRGSWFVQALCSILEEHGKDLEIMQILTRVNDRVARHFESQSDDPHFHEKKQIPCVVSMLTKELYFSQ
# B2: Recombinant caspase-8 (protein)
# chain: SESQTLDKVYQMKSKPRGYCLIINNHNFAKAREKVPKLHSIRDRNGTHLDAGALTTTFEELHFEIKPHDDCTVEQIYEILKIYQLMDHSNMDCFICCILSHGDKGIIYGTDGQEAPIYELTSQFTGLKCPSLAGKPKVFFIQACQGDNYQKGIPVETDSEEQPYLEMDLSSPQTRYIPDEADFLLGMATVNNCVSYRNPAEGTWYIQSLCQSLRERCPRGDDILTILTEVNYEVSNKDDKKNMGKQMPQPTFTLRKKLVFPSD
# B3: Recombinant caspase-6 (protein)
# chain: AFYKREMFDPAEKYKMDHRRRGIALIFNHERFFWHLTLPERRGTCADRDNLTRRFSDLGFEVKCFNDLKAEELLLKIHEVSTVSHADADCFVCVFLSHGEGNHIYAYDAKIEIQTLTGLFKGDKCHSLVGKPKIFIIQACRGNQHDVPVIPLDVVDNQTEKLDTNITEVDAASVYTLPAGADFLMCYSVAEGYYSHRETVNGSWYIQDLCEMLGKYGSSLEFTELLTLVNRKVSQRRVDFCKDPSAIGKKQVPCFASMLTKKLHFFPKSN
# B4: Recombinant caspase-3 (protein)
# chain: SGISLDNSYKMDYPEMGLCIIINNKNFHKSTGMTSRSGTDVDAANLRETFRNLKYEVRNKNDLTREEIVELMRDVSKEDHSKRSSFVCVLLSHGEEGIIFGTNGPVDLKKITNFFRGDRCRSLTGKPKLFIIQACRGTELDCGIETDSGVDDDMACHKIPVEADFLYAYSTAPGYYSWRNSKDGSWFIQSLCAMLKQYADKLEFMHILTRVNRKVATEFESFSFDATFHAKKQIPCIVSMLTKELYFYH
# Key:
# [1] = molecular target: Wild-type human APP695 (β-amyloid precursor protein), P05067
# [2] = molecular target: APP D664A mutant (APP695), P05067
# [3] = molecular target: APP-C125 (C-terminal 125 amino acids of APP695), P05067
# [4] = molecular target: T1, Full-length APLP1 (APP-like protein 1), …
# [5] = molecular target: Full-length APLP2 (APP-like protein 2), Q06481
# Chain of Full-length APLP2 (APP-like protein 2), Q06481 (Q06481 32-763): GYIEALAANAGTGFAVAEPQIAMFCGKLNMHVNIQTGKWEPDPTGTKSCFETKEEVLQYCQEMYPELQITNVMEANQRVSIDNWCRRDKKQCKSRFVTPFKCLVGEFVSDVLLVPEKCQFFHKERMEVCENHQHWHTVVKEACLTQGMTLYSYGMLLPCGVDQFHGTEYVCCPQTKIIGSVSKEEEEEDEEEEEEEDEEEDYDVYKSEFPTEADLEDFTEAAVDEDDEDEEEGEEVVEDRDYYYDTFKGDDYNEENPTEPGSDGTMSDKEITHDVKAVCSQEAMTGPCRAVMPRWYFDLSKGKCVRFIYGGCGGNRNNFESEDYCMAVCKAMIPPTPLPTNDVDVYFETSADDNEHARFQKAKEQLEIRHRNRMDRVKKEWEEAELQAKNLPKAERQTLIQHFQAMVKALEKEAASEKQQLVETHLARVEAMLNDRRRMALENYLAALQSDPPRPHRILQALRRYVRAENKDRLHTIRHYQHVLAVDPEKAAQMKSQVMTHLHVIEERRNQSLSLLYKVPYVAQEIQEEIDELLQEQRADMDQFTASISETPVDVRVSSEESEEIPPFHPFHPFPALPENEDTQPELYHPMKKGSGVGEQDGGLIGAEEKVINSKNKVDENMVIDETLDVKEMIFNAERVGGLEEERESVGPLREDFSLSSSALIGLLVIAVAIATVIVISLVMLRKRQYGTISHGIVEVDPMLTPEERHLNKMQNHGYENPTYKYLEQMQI
Protein,generation of an APP-Neo-immunoreactive epitope by recombinant caspase in vitro [1],generation of an APP-Neo-immunoreactive epitope by recombinant caspase in vitro [2],in vitro caspase cleavage [3],in vitro cleavage of 35S-labelled in vitro transcribed/translated protein [4],in vitro cleavage of 35S-labelled in vitro transcribed/translated protein [5],in vitro cleavage of 35S-labelled in vitro transcribed/translated protein [1],generation of an APP-Neo-immunoreactive epitope by recombinant caspase in vitro [4],generation of an APP-Neo-immunoreactive epitope by recombinant caspase in vitro [5]
B1,"an APP-Neo-immunoreactive epitope was detected in immunoblots of in vitro transcribed/translated full length APP that had been incubated in the presence of recombinant caspase-3, but not caspase-7 or -8",,,,,,,
B2,"an APP-Neo-immunoreactive epitope was detected in immunoblots of in vitro transcribed/translated full length APP that had been incubated in the presence of recombinant caspase-3, but not caspase-7 or -8","APPD664A, did not yield detectable APP-Neo immunoreactive products after incubation with recombinant caspase-3, -7 or -8","caspases-3, -6 and -8 are capable of cleaving APP","APLP1, on the other hand, was cleaved in vitro only by caspase-3, not by caspase-6 or -8","Like APLP1, APLP2 may be cleaved in vitro by caspase-3 only, but with very low efficiency, if at all","APP can be cleaved by caspases-3 and -6, but not by caspase-8",,
B3,,,"caspases-3, -6 and -8 are capable of cleaving APP","APLP1, on the other hand, was cleaved in vitro only by caspase-3, not by caspase-6 or -8","Like APLP1, APLP2 may be cleaved in vitro by caspase-3 only, but with very low efficiency, if at all","APP can be cleaved by caspases-3 and -6, but not by caspase-8",,
B4,"an APP-Neo-immunoreactive epitope was detected in immunoblots of in vitro transcribed/translated full length APP that had been incubated in the presence of recombinant caspase-3, but not caspase-7 or -8",,"caspases-3, -6 and -8 are capable of cleaving APP","APLP1, on the other hand, was cleaved in vitro only by caspase-3, not by caspase-6 or -8","APLP2 may be cleaved in vitro by caspase-3 only, but with very low efficiency, if at all","APP can be cleaved by caspases-3 and -6, but not by caspase-8",in vitro transcribed/translated APLP1 and APLP2 yielded APP-Neo immunoreactive cleavage products only when incubated in the presence of recombinant caspase-3,in vitro transcribed/translated APLP1 and APLP2 yielded APP-Neo immunoreactive cleavage products only when incubated in the presence of recombinant caspase-3
